Patent US20180258163A1 (Chugai, published 2018)
Numbering of substitutions follows the chain as printed. Names may count otherwise. Where two headings read alike, the source gives them in different places. One block for each binder: values may come before it.

Key:
[1] = molecular target: T1, soluble human FcγRIIb (human, UniProt P31994 43-217, limits assumed); experiment: SPR, Ab-IgE complex over captured hFcγRIIb, pH 7.4, 25C
T1 construct: soluble His-tagged form; also called hFcγRIIb
T1 sequence (looked up): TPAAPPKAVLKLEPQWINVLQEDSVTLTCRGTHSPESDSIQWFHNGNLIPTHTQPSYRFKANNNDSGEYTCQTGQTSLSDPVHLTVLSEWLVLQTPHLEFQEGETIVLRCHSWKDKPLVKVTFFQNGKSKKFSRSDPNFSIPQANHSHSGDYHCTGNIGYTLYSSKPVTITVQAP
Method: (§1) Regarding the produced Fc region variant-containing antibodies, binding assays between soluble human FcγRIIb and antigen-antibody complexes were performed using BIACORE T200 (GE Healthcare). Soluble human FcγRIIb (NCBI accession NM_004001.3) was produced in the form of a His-tagged molecule by a method known in the art. An appropriate amount of an anti-His antibody was fixed onto Sensor chip CM5 (GE Healthcare) by the amine coupling method using a His capture kit (GE Healthcare) to capture human FcγRIIb. Next, an antibody-antigen complex and a running buffer (as a reference solution) were injected, and interaction was allowed to take place with the human FcγRIIb captured onto the sensor chip. 20 mM N-(2-Acetamido)-2-aminoethanesulfonic acid, 150 mM NaCl, 1.2 mM CaCl₂, and 0.05% (w/v) Tween 20 at pH 7.4 was used as the running buffer, and the respective buffer was also used to dilute the soluble human FcγRIIb. To regenerate the sensor chip, 10 mM glycine-HCl at pH 1.5 was used. All measurements were carried out at 25° C. Analyses were performed based on binding (RU) calculated from sensorgrams obtained by the measurements, and relative values when the binding amount of Ab1H/Ab1L (original Ab1) was defined as 1.00 are shown. To calculate the parameters, the BIACORE T100 Evaluation Software (GE Healthcare) was used.

[2] = molecular target: T1, soluble human FcγRIIb; experiment: as above; remark: listed apart in the source
Method: as §1

B1: Ab1H005m/Ab1L (antibody, human IgG1, kappa, name in Kabat numbering)
heavy: not shown
light: DIQMTQSPSSVSASVGDRVTITCQASESIYSGLAWYQQKPGQPPKLLIYDHSTLASGVPSRFSGSGSGTEYALTISSLQPEDFATYYCQHADYAHHSDNVFGGGTKVEIKRTVAAPSVFIFPPSDEQLKSGTASVVCLLNNFYPREAKVQWKVDNALQSGNSQESVTEQDSKDSTYSLSSTLTLSKADYEKHKVYACEVTHQGLSSPVTKSFNRGEC
notes: copies: 2 + 2
BIACORE fold (relative binding, original Ab1=1.00) [1]: 0.92 fold

B5: Ab1H/Ab1L006 (antibody, human IgG1, kappa)
heavy: not shown
light: B1 light with A25R, S26R
notes: copies: 2 + 2
BIACORE fold (relative binding, original Ab1=1.00) [2]: 1.18 fold

B6: Ab1H/Ab1L007 (antibody, human IgG1, kappa)
heavy: not shown
light: B1 light with Q37R
notes: copies: 2 + 2
BIACORE fold (relative binding, original Ab1=1.00) [2]: 1.06 fold

B8: Ab1H/Ab1L005 (antibody, human IgG1, kappa)
heavy: not shown
light: B1 light with A25K, S26K
notes: '526K' read as S26K; copies: 2 + 2
BIACORE fold (relative binding, original Ab1=1.00) [2]: 0.84 fold

B9: Ab1H/Ab1L008 (antibody, human IgG1, kappa)
heavy: not shown
light: B1 light with G41R, Q42K
notes: copies: 2 + 2
BIACORE fold (relative binding, original Ab1=1.00) [2]: 1.07 fold

B10: Ab1H/Ab1L012 (antibody, human IgG1, kappa)
heavy: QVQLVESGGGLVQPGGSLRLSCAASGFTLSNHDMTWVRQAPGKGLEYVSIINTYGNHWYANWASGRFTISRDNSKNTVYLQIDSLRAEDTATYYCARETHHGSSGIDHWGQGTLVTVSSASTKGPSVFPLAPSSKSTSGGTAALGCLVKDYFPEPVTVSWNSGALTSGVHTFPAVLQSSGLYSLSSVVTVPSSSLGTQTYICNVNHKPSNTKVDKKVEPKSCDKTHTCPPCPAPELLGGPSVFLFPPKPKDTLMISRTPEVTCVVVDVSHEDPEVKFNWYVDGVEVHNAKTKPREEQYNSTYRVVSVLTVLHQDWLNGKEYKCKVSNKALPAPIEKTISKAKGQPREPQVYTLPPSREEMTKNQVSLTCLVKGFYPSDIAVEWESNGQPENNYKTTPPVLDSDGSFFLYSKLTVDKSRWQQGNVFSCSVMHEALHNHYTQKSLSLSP
light: B1 light with S65R, T69R
notes: copies: 2 + 2
BIACORE fold (relative binding, original Ab1=1.00) [2]: 0.97 fold

B11: Ab1H/Ab1L003 (antibody, human IgG1, kappa)
heavy: not shown
light: B1 light with Q24R, E27R
notes: copies: 2 + 2
BIACORE fold (relative binding, original Ab1=1.00) [2]: 1.09 fold

B12: Ab1H028/Ab1L (antibody, human IgG1, kappa, name in Kabat numbering)
heavy: not shown
light: B1 light
notes: copies: 2 + 2
BIACORE fold (relative binding, original Ab1=1.00) [1]: 1.37 fold

B13: Ab1H/Ab1L002 (antibody, human IgG1, kappa)
heavy: not shown
light: B1 light with Q24R, E27Q
notes: copies: 2 + 2
BIACORE fold (relative binding, original Ab1=1.00) [2]: 1.03 fold

B16: Ab1H014/Ab1L (antibody, human IgG1, kappa, name in Kabat numbering)
heavy: not shown
light: B1 light
notes: copies: 2 + 2
BIACORE fold (relative binding, original Ab1=1.00) [1]: 0.91 fold

B18: Ab1H029/Ab1L (antibody, human IgG1, kappa, name in Kabat numbering)
heavy: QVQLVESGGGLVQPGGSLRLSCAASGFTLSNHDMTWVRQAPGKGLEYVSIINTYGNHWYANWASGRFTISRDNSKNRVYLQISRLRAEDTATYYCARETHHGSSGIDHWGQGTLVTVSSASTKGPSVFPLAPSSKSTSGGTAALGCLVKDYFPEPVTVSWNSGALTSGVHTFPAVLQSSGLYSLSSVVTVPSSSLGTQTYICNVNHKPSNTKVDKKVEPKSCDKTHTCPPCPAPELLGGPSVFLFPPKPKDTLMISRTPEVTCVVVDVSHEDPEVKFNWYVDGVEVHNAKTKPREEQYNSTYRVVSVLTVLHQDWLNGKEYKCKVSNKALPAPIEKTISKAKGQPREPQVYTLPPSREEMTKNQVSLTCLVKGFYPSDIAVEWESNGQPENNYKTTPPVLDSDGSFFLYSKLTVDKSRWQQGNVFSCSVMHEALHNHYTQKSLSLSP
light: B1 light
notes: copies: 2 + 2
BIACORE fold (relative binding, original Ab1=1.00) [1]: 1.33 fold

B19: Ab1H/Ab1L010 (antibody, human IgG1, kappa)
heavy: not shown
light: B1 light with S52R, S56R
notes: copies: 2 + 2
BIACORE fold (relative binding, original Ab1=1.00) [2]: 0.98 fold

B20: Ab1H/Ab1L015 (antibody, human IgG1, kappa)
heavy: not shown
light: B1 light with G16K, Q24R, E27R
notes: copies: 2 + 2
BIACORE fold (relative binding, original Ab1=1.00) [2]: 1.25 fold

B26: Ab1H010/Ab1L (antibody, human IgG1, kappa, name in Kabat numbering)
heavy: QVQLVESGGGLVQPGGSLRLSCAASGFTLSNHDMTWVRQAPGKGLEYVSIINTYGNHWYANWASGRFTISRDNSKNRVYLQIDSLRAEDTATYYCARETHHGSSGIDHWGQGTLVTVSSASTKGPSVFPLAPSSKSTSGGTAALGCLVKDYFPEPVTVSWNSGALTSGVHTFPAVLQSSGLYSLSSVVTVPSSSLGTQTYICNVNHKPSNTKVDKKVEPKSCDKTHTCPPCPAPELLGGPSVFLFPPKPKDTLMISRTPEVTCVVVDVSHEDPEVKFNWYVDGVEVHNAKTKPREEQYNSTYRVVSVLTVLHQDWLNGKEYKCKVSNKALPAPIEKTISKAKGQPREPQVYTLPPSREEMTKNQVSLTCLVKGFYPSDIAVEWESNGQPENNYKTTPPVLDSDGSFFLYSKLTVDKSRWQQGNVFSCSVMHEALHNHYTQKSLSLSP
light: B1 light
notes: copies: 2 + 2
BIACORE fold (relative binding, original Ab1=1.00) [1]: 1.05 fold

B28: Ab1H013/Ab1L (antibody, human IgG1, kappa, name in Kabat numbering)
heavy: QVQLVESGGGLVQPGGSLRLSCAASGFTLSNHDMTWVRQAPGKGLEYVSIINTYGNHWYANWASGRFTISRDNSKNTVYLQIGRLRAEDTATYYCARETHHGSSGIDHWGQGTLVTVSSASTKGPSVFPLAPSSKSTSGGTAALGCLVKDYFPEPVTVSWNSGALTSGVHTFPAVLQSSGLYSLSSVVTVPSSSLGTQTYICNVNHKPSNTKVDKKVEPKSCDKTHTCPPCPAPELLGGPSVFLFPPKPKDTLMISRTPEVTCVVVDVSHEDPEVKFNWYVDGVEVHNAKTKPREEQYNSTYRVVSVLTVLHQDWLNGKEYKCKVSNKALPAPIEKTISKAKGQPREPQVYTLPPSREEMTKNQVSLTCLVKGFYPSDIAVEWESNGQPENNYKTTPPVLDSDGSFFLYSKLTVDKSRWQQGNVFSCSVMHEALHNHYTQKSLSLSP
light: B1 light
notes: copies: 2 + 2
BIACORE fold (relative binding, original Ab1=1.00) [1]: 1.02 fold

B31: Ab1H/Ab1L014 (antibody, human IgG1, kappa)
heavy: not shown
light: B1 light with S76R, Q79K
notes: copies: 2 + 2
BIACORE fold (relative binding, original Ab1=1.00) [2]: 1.08 fold

B32: Ab1H/Ab1L011 (antibody, human IgG1, kappa)
heavy: not shown
light: B1 light with S52K, S56K
notes: copies: 2 + 2
BIACORE fold (relative binding, original Ab1=1.00) [2]: 1.02 fold

B33: Ab1H/Ab1L004 (antibody, human IgG1, kappa)
heavy: not shown
light: B1 light with Q24K, E27K
notes: copies: 2 + 2
BIACORE fold (relative binding, original Ab1=1.00) [2]: 1.01 fold

B34: Ab1H012/Ab1L (antibody, human IgG1, kappa, name in Kabat numbering)
heavy: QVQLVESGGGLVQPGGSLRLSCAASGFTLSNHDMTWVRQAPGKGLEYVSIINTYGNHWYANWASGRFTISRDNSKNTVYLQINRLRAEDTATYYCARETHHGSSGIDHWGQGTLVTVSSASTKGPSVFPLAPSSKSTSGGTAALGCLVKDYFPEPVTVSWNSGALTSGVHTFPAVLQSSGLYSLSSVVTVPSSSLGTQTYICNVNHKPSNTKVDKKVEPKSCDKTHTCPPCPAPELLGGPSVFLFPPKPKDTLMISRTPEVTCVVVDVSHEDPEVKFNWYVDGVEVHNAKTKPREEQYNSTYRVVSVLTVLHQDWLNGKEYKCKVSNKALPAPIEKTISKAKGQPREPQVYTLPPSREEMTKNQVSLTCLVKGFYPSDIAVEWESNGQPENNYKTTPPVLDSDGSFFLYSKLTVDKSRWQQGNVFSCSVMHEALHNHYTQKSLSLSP
light: B1 light
notes: copies: 2 + 2
BIACORE fold (relative binding, original Ab1=1.00) [1]: 0.96 fold

B35: Ab1H/Ab1L013 (antibody, human IgG1, kappa)
heavy: not shown
light: B1 light with T74K, S77R
notes: copies: 2 + 2
BIACORE fold (relative binding, original Ab1=1.00) [2]: 1.7 fold

B38: Ab1H016/Ab1L (antibody, human IgG1, kappa, name in Kabat numbering)
heavy: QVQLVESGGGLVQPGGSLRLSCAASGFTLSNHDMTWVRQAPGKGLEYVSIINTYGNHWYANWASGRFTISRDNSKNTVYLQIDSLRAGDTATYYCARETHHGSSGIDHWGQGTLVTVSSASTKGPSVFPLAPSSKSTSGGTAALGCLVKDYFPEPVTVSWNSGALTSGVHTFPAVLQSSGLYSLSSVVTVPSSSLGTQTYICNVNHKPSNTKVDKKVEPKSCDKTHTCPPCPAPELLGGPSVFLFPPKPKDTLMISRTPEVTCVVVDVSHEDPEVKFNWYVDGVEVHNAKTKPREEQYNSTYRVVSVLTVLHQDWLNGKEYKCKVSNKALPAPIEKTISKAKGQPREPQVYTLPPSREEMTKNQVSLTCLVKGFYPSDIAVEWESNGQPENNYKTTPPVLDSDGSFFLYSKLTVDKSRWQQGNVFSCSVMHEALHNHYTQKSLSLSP
light: B1 light
notes: copies: 2 + 2
BIACORE fold (relative binding, original Ab1=1.00) [1]: 1.04 fold

B39: Ab1H027/Ab1L (antibody, human IgG1, kappa, name in Kabat numbering)
heavy: not shown
light: B1 light
notes: copies: 2 + 2
BIACORE fold (relative binding, original Ab1=1.00) [1]: 1.21 fold

B41: Ab1H/Ab1L001 (antibody, human IgG1, kappa)
heavy: not shown
light: B1 light with G16K
notes: light chain = Ab1L with G16K (Kabat); also called Ab1L001T; copies: 2 + 2
BIACORE fold (relative binding, original Ab1=1.00) [2]: 1.03 fold

B47: Ab1H018/Ab1L (antibody, human IgG1, kappa, name in Kabat numbering)
heavy: not shown
light: B1 light
notes: copies: 2 + 2
BIACORE fold (relative binding, original Ab1=1.00) [1]: -0.01 fold

B48: Ab1H/Ab1L009 (antibody, human IgG1, kappa)
heavy: not shown
light: B1 light with L46R, Y49K
notes: copies: 2 + 2
BIACORE fold (relative binding, original Ab1=1.00) [2]: -0.02 fold

Other lines, results leading:

BIACORE fold (relative binding, original Ab1=1.00) [2]: 1.47 fold
B2: Ab1H/Ab1L038 (antibody, human IgG1, kappa)
heavy: not shown
light: B1 light with Q24R, E27R, S52R, S56R, T74K, S77R
notes: copies: 2 + 2

BIACORE fold (relative binding, original Ab1=1.00) [2]: 1.02 fold
B3: Ab1H/Ab1L061 (antibody, human IgG1, kappa)
heavy: not shown
light: B1 light with Q42K, S76R
notes: copies: 2 + 2

BIACORE fold (relative binding, original Ab1=1.00) [2]: 1.35 fold
B4: Ab1H/Ab1L041 (antibody, human IgG1, kappa)
heavy: not shown
light: B1 light with Q24R, E27R, S52R, S56R, S76R, Q79K
notes: copies: 2 + 2

BIACORE fold (relative binding, original Ab1=1.00) [2]: 1.23 fold
B7: Ab1H/Ab1L029 (antibody, human IgG1, kappa)
heavy: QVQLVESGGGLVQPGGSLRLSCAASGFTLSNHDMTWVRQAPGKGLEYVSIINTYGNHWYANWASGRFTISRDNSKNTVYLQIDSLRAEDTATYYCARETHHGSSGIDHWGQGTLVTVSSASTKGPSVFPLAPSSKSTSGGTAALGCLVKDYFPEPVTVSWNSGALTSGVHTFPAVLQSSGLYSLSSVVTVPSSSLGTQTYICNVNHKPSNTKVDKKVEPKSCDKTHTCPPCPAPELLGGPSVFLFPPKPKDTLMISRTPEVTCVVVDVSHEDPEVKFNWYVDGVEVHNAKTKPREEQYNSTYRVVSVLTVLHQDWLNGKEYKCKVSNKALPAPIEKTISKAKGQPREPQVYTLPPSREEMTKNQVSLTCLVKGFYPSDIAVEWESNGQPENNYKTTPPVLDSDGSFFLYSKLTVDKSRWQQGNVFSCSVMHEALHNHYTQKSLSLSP
light: B1 light with A25R, S26R, S52K, S56K
notes: copies: 2 + 2

BIACORE fold (relative binding, original Ab1=1.00) [2]: 1.45 fold
B14: Ab1H/Ab1L022 (antibody, human IgG1, kappa)
heavy: not shown
light: B1 light with Q24R, E27R, T74K, S77R
notes: copies: 2 + 2

BIACORE fold (relative binding, original Ab1=1.00) [2]: 1.23 fold
B15: Ab1H/Ab1L040 (antibody, human IgG1, kappa)
heavy: not shown
light: B1 light with Q24R, E27R, G41R, Q42K, S76R, Q79K
notes: copies: 2 + 2

BIACORE fold (relative binding, original Ab1=1.00) [2]: 1.36 fold
B17: Ab1H/Ab1L021 (antibody, human IgG1, kappa)
heavy: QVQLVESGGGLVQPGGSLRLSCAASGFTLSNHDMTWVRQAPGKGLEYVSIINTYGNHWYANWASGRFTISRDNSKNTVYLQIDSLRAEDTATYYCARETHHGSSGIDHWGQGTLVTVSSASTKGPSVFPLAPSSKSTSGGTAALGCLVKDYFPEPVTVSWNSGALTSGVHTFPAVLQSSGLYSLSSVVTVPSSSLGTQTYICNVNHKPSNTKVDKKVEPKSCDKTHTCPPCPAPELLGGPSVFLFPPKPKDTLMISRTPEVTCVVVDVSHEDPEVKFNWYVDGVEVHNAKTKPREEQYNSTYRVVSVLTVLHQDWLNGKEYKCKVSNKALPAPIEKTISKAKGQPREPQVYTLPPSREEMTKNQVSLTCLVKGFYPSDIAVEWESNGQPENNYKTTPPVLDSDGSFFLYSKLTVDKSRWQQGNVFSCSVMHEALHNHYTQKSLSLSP
light: B1 light with Q24R, E27R, S65R, T69R
notes: '169R' read as T69R; copies: 2 + 2

BIACORE fold (relative binding, original Ab1=1.00) [2]: 1.38 fold
B21: Ab1H/Ab1L037 (antibody, human IgG1, kappa)
heavy: not shown
light: B1 light with Q24R, E27R, G41R, Q42K, T74K, S77R
notes: copies: 2 + 2

BIACORE fold (relative binding, original Ab1=1.00) [2]: 1.49 fold
B22: Ab1H/Ab1L035 (antibody, human IgG1, kappa)
heavy: not shown
light: B1 light with Q24R, E27R, S65R, T69R, T74K, S77R
notes: copies: 2 + 2

BIACORE fold (relative binding, original Ab1=1.00) [2]: 0.07 fold
B23: Ab1H/Ab1L018 (antibody, human IgG1, kappa)
heavy: not shown
light: B1 light with Q24R, E27R, L46R, Y49K
notes: copies: 2 + 2

BIACORE fold (relative binding, original Ab1=1.00) [2]: 0.99 fold
B24: Ab1H/Ab1L039 (antibody, human IgG1, kappa)
heavy: not shown
light: B1 light with Q24R, E27R, T74K, S76R, S77R, Q79K
notes: copies: 2 + 2

BIACORE fold (relative binding, original Ab1=1.00) [2]: 1.39 fold
B25: Ab1H/Ab1L025 (antibody, human IgG1, kappa)
heavy: not shown
light: B1 light with A25R, S26R, Q37R
notes: copies: 2 + 2

BIACORE fold (relative binding, original Ab1=1.00) [2]: 1.16 fold
B27: Ab1H/Ab1L030 (antibody, human IgG1, kappa)
heavy: not shown
light: B1 light with A25R, S26R, S65R, T69R
notes: copies: 2 + 2

BIACORE fold (relative binding, original Ab1=1.00) [2]: 1.36 fold
B29: Ab1H/Ab1L016 (antibody, human IgG1, kappa)
heavy: not shown
light: B1 light with Q24R, E27R, Q37R
notes: copies: 2 + 2

BIACORE fold (relative binding, original Ab1=1.00) [2]: 1.22 fold
B30: Ab1H/Ab1L020 (antibody, human IgG1, kappa)
heavy: not shown
light: B1 light with Q24R, E27R, S52K, S56K
notes: copies: 2 + 2

BIACORE fold (relative binding, original Ab1=1.00) [2]: 1.26 fold
B36: Ab1H/Ab1L033 (antibody, human IgG1, kappa)
heavy: not shown
light: B1 light with Q24R, E27R, G41R, Q42K, S65R, T69R
notes: copies: 2 + 2

BIACORE fold (relative binding, original Ab1=1.00) [2]: 1.46 fold
B37: Ab1H/Ab1L028 (antibody, human IgG1, kappa)
heavy: not shown
light: B1 light with A25R, S26R, S52R, S56R
notes: copies: 2 + 2

BIACORE fold (relative binding, original Ab1=1.00) [2]: 1.48 fold
B40: Ab1H/Ab1L036 (antibody, human IgG1, kappa)
heavy: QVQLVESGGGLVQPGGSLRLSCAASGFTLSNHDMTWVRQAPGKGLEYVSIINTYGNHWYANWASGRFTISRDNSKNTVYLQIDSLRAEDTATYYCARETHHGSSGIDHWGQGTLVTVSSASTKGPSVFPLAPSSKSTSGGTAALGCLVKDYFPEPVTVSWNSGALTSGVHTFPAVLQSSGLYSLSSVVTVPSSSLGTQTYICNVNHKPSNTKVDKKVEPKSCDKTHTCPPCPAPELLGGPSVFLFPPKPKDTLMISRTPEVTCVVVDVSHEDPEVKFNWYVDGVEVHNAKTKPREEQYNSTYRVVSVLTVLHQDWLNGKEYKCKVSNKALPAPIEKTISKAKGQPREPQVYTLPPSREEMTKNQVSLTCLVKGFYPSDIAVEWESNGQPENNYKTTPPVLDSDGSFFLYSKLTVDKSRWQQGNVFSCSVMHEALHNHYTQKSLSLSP
light: B1 light with Q24R, E27R, S65R, T69R, S76R, Q79K
notes: copies: 2 + 2

BIACORE fold (relative binding, original Ab1=1.00) [2]: 1.71 fold
B42: Ab1H/Ab1L034 (antibody, human IgG1, kappa)
heavy: not shown
light: B1 light with Q24R, E27R, S52R, S56R, S65R, T69R
notes: copies: 2 + 2

BIACORE fold (relative binding, original Ab1=1.00) [2]: 1.17 fold
B43: Ab1H/Ab1L019 (antibody, human IgG1, kappa)
heavy: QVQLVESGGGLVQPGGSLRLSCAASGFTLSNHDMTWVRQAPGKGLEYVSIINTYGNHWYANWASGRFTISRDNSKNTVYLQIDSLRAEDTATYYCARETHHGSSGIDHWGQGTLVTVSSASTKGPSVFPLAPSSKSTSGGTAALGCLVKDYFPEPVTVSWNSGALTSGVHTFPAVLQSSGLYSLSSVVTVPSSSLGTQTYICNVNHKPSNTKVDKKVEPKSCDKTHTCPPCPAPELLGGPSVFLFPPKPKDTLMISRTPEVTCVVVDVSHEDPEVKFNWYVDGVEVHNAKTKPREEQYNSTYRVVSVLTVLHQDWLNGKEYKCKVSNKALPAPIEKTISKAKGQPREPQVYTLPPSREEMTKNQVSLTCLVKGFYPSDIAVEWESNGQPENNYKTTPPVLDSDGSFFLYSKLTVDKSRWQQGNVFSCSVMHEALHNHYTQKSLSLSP
light: B1 light with Q24R, E27R, S52R, S56R
notes: copies: 2 + 2

BIACORE fold (relative binding, original Ab1=1.00) [2]: 1.39 fold
B44: Ab1H/Ab1L023 (antibody, human IgG1, kappa)
heavy: not shown
light: B1 light with Q24R, E27R, S76R, Q79K
notes: copies: 2 + 2

BIACORE fold (relative binding, original Ab1=1.00) [2]: 0.98 fold
B45: Ab1H/Ab1L062 (antibody, human IgG1, kappa)
heavy: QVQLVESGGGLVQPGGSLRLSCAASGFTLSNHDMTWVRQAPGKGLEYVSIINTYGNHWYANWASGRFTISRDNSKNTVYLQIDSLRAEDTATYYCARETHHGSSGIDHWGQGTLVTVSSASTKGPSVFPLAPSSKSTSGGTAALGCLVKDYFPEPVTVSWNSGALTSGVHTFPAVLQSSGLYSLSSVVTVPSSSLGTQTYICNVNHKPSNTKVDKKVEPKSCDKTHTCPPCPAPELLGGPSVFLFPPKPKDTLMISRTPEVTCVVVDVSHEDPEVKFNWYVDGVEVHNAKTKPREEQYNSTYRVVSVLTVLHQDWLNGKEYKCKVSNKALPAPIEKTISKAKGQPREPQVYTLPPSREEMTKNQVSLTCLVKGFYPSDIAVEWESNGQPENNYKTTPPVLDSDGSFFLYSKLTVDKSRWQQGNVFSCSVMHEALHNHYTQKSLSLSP
light: B1 light with S65R, Q79K
notes: copies: 2 + 2

BIACORE fold (relative binding, original Ab1=1.00) [2]: 1.27 fold
B46: Ab1H/Ab1L017 (antibody, human IgG1, kappa)
heavy: not shown
light: B1 light with Q24R, E27R, G41R, Q42K
notes: copies: 2 + 2
